In patent publication US20240294651A1 (KYMAB, published 2024):
Substitutions are numbered along the chain they refer to.

B1: CL-82458 (antibody, human IgG4 S228P, kappa, V domains shown)
VH: EVQLVESGGDLVQPGGSLRLSCAASGFTFYSYAMNWVRQAPGKGLKWVSGISGSGDITYYADSVKGRFTISRDNSKNTLYLQMHSLRPEDTAIYYCAKGQLERRYYKYYGMDVWGQGTTVTVSS
VL: DIQMTQSPSSLSASVGDRVTITCRANQGIRNDLGWYQQKPGKAPKRLIYGASSLKSGVPSRFSGSGSGTEFTLTISSLQPEDFATYYCLQQNSYPLTFGGGTKVEIKR
notes: Tested in human IgG4-PE format; also called CL-82458 (IgG4-PE format)
B2: CL-82658 (antibody, human IgG4 S228P, kappa, V domains shown)
VH: QVQLVESGGGVVQPGRSLRLSCAASGFSFSSYGMHWVRQAPGKGLEWVAVISYDGSNKYYADSVKGRFTISRDNSKNTLYLQMNSLRGEDTAVYYCSKGSLTPRRGYYYSYGMDVWGQGTTVTVSS
VL: B1 VL with N26S, G34S, G50A, K55Q, Q91H, S93G, L96F, G100P, E105D
notes: Tested in human IgG4-PE format; also called CL-82658 (IgG4-PE format)
B3: Anti-CXCR7 mAb #11G8 (R&D Systems) (antibody, V domains shown)
VH: EVKLVESGGDLVQPGGSLKLSCATSGFTFSDYYMFWVRQTPEKRLEWVAYITNGGDRSYYSDTVTGRFIISRDNAKNTLYLQMSRLKSEDTAMYYCARQGNWAAWFVYWGQGTLVTVSA
VL: DVLMTQTPLSLPVSLGDQASISCRSSHYIVHSDGNTYLEWYLQKPGQSPKLLIYKVSNRFSGVPDRFSGSGSGTDFTLKISRVEAEDLGIYYCFQGSHVPLTFGAGTKLELKR
B4: CL-82574 (antibody, human IgG4 S228P, kappa)
heavy: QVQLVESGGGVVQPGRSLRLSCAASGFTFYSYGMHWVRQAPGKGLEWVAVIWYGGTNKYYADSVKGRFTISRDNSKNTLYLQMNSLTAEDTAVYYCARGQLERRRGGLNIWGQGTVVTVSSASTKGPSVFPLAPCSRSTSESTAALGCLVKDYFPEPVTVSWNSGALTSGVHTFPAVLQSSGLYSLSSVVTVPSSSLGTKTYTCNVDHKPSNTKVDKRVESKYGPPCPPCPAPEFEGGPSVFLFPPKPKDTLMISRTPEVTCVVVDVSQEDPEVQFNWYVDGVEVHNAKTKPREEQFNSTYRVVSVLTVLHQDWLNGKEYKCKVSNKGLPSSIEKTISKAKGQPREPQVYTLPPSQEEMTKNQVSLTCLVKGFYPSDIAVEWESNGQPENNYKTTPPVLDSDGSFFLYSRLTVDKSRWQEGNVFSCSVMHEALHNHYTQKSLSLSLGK
light: DIQMTQSPSSLSASVGDRVTITCRASQGVRDDLGWYQQKPGKAPKRLIYAASSLQSGVPSRFSGSGSGTEFTLTISSLQPEDFATYYCLQHNSYPFTFGPGTKVDIKRTVAAPSVFIFPPSDEQLKSGTASVVCLLNNFYPREAKVQWKVDNALQSGNSQESVTEQDSKDSTYSLSSTLTLSKADYEKHKVYACEVTHQGLSSPVTKSFNRGEC
notes: Tested in human IgG4-PE format; also called CL-82574 (IgG4-PE format)
B5: CL-82558 (antibody, human IgG4 S228P, kappa, V domains shown)
VH: QVQLQESGPGLVKPSQTLSLTCTVSGGSISSGGYYWSWIRQVPGKGLEWIGYISYSGNTFYSPSLKSRVTISVDTSENKFSLRLTSVTAADTAVYFCARDRRIPMLRGVKGYYYGLDVWGQGTTVTVSS
VL: DIVMTQSPLSLPVIPGEPASISCRSSQSLLHRNGYKYLDWYLQKPGQSPQLLIYLGSNRASGVPARFSGSGSGTDFTLKISRVEAEDVGVYYCMQALQTPWTFGQGTKVEIKR
notes: Tested in human IgG4-PE format; also called CL-82558 (IgG4-PE format)

Legend:
[1] = target: T1, human CXCR4 (cell-expressed) (human, UniProt P61073 1-352); assay: cell-based or functional assay
[2] = target: T1, human CXCR4 (cell-expressed); assay: cell-based or functional assay; remark: listed apart in the source
[3] = target: T1, human CXCR4 (cell-expressed); assay: cell-based or functional assay; remark: listed apart in the source
cynomolgus CXCR4 [4] = target: T2, cynomolgus CXCR4 (cynomolgus monkey, UniProt Q28474 1-352); assay: cell-based or functional assay
[5] = target: T1, human CXCR4 (cell-expressed); assay: cell-based or functional assay; remark: listed apart in the source
[6] = target: T1, human CXCR4 (cell-expressed); assay: cell-based or functional assay; remark: listed apart in the source
[7] = target: T1, human CXCR4 (cell-expressed); assay: cell-based or functional assay; remark: listed apart in the source
[8] = target: T1, human CXCR4 (cell-expressed); assay: cell-based or functional assay; remark: listed apart in the source
cynomolgus CXCR4 [9] = target: T2, cynomolgus CXCR4; assay: flow cytometry on CHO-S cells expressing cynomolgus CXCR4
Protocol: Cynomolgus monkey CXCR4 expressing CHO-S cells were plated at 100 uL/well of cells at 1 million of cells/mL (0.1 million of cells/well) into a 96 well V-bottom plate (Greiner). Plates were centrifuged at 300×g for 3 min at 4° C. and supernatant discarded. […] Primary antibody dilutions were added to cells (50 μL/well) and cell pellets resuspended by pipetting. Plates was incubated for 1 h at 4° C. 100 μL/well of PBS, was added and plates centrifuged at 300×g for 3 min at 4° C. and supernatant discarded. This step was repeated twice. […] Cells were resuspended by pipetting. Plates were incubated for 1 h at 4° C. 100 μL/well PBS, was added and plates centrifuged at 300×g for 3 min at 4° C. and supernatant discarded. This step was repeated twice. Finally, cells were resuspended in 100 μL/well of PBS and analysed on CytoFLEX (Beckman Coulter).
Binding of antibodies to cynomolgus CXCR4 expressed on CHO-S cells was analysed by gating the main cell population using forward and side scatter (Flow Jo, Flow Jo LLC) to allow for doublet discrimination. […] EC₅₀ values were calculated by transforming the data and fitting a 4-parameter logistic regression curve to each antibody titration.

[10] = target: T3, terbium-labelled SNAP-CXCR4 on HEK-293 cells (Cisbio C1TT1CXCR4) (human, UniProt P61072 1-352 (Pan troglodytes entry), terbium label on the SNAP tag); assay: TR-FRET (Tag-lite) competition with AlexaFluor 647-CXCL12 on terbium-labelled SNAP-CXCR4 HEK-293 cells
T3 construct: Bought assay-ready cells; also called CXCR4 expressing cells; not shown: SNAP tag

human CXCR7 [11] = target: T4, human CXCR7 (human, UniProt P25106 1-362); assay: flow cytometry on CHO-S cells expressing human CXCR7, Alexa Fluor 647 secondary antibody, GeoMean (647 nm)
T4 construct: Expressed on CHO-S cells
Protocol: CXCR7 expressing CHO-S cells were plated at 100 μL/well of cells at 1 million of cells/mL (0.1 million of cells/well) into a 96 well V-bottom plate (Greiner). Plates were centrifuged at 300×g for 3 min at 4° C. and supernatant discarded. […] Primary antibody dilutions were added to cells (100 μL/well) and cell pellets resuspended by pipetting. Plate was incubated for 1 h at 4° C. 100 μL/well of PBS, was added and plates centrifuged at 300×g for 3 min at 4° C. and supernatant discarded. This step was repeated twice. […] Cells were resuspended by pipetting. Plate was incubated for 1 h at 4° C. 100 μL/well of PBS, was added and plates centrifuged at 300×g for 3 min at 4° C. and supernatant discarded. This step was repeated twice. Finally, cells were resuspended in 100 μL/well of PBS and analysed on CytoFLEX (Beckman Coulter).
Binding of antibodies to CXCR7 expressed on CHO-S cells was analysed by gating the main cell population using forward and side scatter (Flow Jo, Flow Jo LLC) to allow for doublet discrimination.

CXCR4 StaR nanodiscs [12] = target: T5, CXCR4 StaR nanodiscs; assay: SPR (Biacore T200), IgG4-PE antibody captured by anti-IgG on CM5, CXCR4 StaR nanodiscs at 250 nM as analyte, 25 C, 1:1 model; N = 1
T5 construct: Purified receptor in lipid-protein nanodiscs; also called StaR CXCR4; thermostabilised CXCR4
Protocol: (§1) Anti-IgG antibodies were immobilised on chip CM5 (GE Healthcare) by amine coupling. […] A channel with no anti-CXCR4 antibodies captured was used as a reference. […] The blank-subtracted sensorgrams were fitted to the 1:1 interaction model using the Biacore T200 evaluation software. The assay was run at 25° C. using 0.01 M HEPES pH 7.4, 0.15 M NaCl as running buffer.

human CXCR7 [13] = target: T4, human CXCR7; assay: flow cytometry on CHO-S cells expressing human CXCR7, anti-mouse Alexa Fluor 647 secondary antibody, GeoMean (647 nm)
CXCR4 StaR nanodiscs [14] = target: T5, CXCR4 StaR nanodiscs; assay: SPR (Biacore T200), IgG4-PE antibody captured by anti-IgG on CM5, CXCR4 StaR nanodiscs at 250 nM as analyte, 25 C, 1:1 model; N = 2
Protocol: as §1

T4 sequence (P25106 whole entry): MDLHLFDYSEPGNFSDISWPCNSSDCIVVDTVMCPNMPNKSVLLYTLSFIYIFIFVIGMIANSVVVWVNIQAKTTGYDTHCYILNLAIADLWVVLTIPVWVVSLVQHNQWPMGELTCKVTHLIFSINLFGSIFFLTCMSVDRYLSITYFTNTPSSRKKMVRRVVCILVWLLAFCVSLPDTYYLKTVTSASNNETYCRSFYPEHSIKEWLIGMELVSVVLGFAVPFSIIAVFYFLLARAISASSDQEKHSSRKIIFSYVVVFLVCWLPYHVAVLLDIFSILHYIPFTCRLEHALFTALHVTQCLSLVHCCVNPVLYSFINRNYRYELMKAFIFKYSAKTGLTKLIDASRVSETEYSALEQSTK
T2 sequence (Q28474 whole entry): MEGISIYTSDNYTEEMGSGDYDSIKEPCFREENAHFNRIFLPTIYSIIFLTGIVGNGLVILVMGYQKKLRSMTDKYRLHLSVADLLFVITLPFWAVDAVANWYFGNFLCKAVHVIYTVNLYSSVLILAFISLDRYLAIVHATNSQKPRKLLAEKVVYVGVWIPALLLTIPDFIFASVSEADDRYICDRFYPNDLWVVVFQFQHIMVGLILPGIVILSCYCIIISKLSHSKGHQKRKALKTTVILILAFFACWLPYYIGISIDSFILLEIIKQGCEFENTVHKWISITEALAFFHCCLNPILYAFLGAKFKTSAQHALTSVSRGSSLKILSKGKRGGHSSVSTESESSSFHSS
T3 sequence (P61072 whole entry): as the sequence (Q28474 whole entry) above, with I24M, H35N, R38K, K146R, S176N counted along it
T1 sequence (P61073 whole entry): as the sequence (Q28474 whole entry) above, with I24M, H35N, R38K, K146R, S176N counted along it

Binder | % Max Inhibition, cAMP HTRF assay, CXCR4 BacMam HEK-293 cells [1] | IC50, cAMP HTRF assay, CXCR4 BacMam HEK-293 cells, 5.5 nM CXCL12 [1] | % Max Inhibition, beta-arrestin reporter assay, Tango CXCR4-bla U2OS cells [2] | IC50, beta-arrestin reporter assay, Tango CXCR4-bla U2OS cells, 30 nM CXCL12 [2] | Max Signal (Total Overlap Object Area), internalisation on Ramos cells, live-cell imaging [3] | % Maximum Inhibition, cAMP HTRF assay, cyno CXCR4 BacMam HEK-293 cells (cynomolgus CXCR4 [4]) | IC50, cAMP HTRF assay, cyno CXCR4 BacMam HEK-293 cells (cynomolgus CXCR4 [4]) | % effect (remaining % of CXCL12 response), DMR assay, human T-cells [5] | IC50, label-free DMR assay, isolated human T-cells, EC80 CXCL12 [5] | IC50 n = 1, Jurkat chemotaxis towards 30 nM CXCL12 (IncuCyte) [6] | IC50 n = 2, Jurkat chemotaxis towards 30 nM CXCL12 (IncuCyte) [6] | IC50 n = 3, Jurkat chemotaxis towards 30 nM CXCL12 (IncuCyte) [6] | Mean IC50, Jurkat chemotaxis towards 30 nM CXCL12 (IncuCyte) [6] | % of max migration at 120 nM Ab, primary naïve T-cell trans-well migration [7] | IC50 of antibody in presence of 30 nM CXCL12, human T-cell transwell chemotaxis [8] | EC50 (cynomolgus CXCR4 [9]) | % Max Inhibition [10] | IC50 [10] | binding result (human CXCR7 [11]) | Kd (CXCR4 StaR nanodiscs [12]) | further results
B1 | 88% | 40 nM | 102% | 0.31 nM | 20800 µm^2 per image | 78% | 2 nM | 2% | 12.1 nM | 2.18 nM | 3.43 nM | 1.66 nM | 2.42 nM | 17.6% | 0.26 not printed (nM assumed) | 2.2 nM | 99% | 0.79 nM | no binding (tested: log(M) about -6.9 (about 1.2e-7 M)) | 7.5 nM | koff (CXCR4 StaR nanodiscs [12]): 0.00046 s⁻¹; kon (CXCR4 StaR nanodiscs [12]): 61000 M⁻¹ s⁻¹
B2 | 98% | 23 nM | 100% | 0.35 nM | 18900 µm^2 per image | 80% | 1 nM | -0.6% | 1.54 nM | 0.22 nM | 0.31 nM | 0.21 nM | 0.25 nM | -2.08% | 0.18 not printed (nM assumed) | 4.2 nM | 100% | 1.04 nM | no binding (tested: log(M) about -6.9 (about 1.2e-7 M)) | 9.6 nM | IC50, primary naïve T-cell trans-well migration [7]: 0.99 nM; koff (CXCR4 StaR nanodiscs [12]): 0.0005 s⁻¹; kon (CXCR4 StaR nanodiscs [12]): 52000 M⁻¹ s⁻¹
B3 |  |  |  |  |  |  |  |  |  |  |  |  |  |  |  |  |  |  |  |  | EC50 (read off the curve) (human CXCR7 [13]): ~10 nM
B4 | 96% | 21 nM | 99.5% | 0.14 nM | 18100 µm^2 per image | 90% | 1.2 nM | 0.68% | 2.09 nM | 0.32 nM | 0.62 nM | 0.63 nM | 0.52 nM | 5.44% | 0.21 not printed (nM assumed) | 3.5 nM | 98% | 0.63 nM | no binding (tested: log(M) about -6.9 (about 1.2e-7 M)) | 8 nM | IC50, primary naïve T-cell trans-well migration [7]: 0.95 nM; koff (CXCR4 StaR nanodiscs [12]): 0.00088 s⁻¹; kon (CXCR4 StaR nanodiscs [12]): 110000 M⁻¹ s⁻¹
B5 | 94% | 29 nM | 99.5% | 0.07 nM | 23900 µm^2 per image | 83% | 1.3 nM | 4.3% | 1.72 nM | 0.72 nM | 0.94 nM | 0.71 nM | 0.79 nM | 6.34% | 0.14 not printed (nM assumed) | 1.1 nM | 101% | 0.57 nM | no binding (tested: log(M) about -6.9 (about 1.2e-7 M)) | 3.9 nM | koff (CXCR4 StaR nanodiscs [12]): 0.00047 s⁻¹; kon (CXCR4 StaR nanodiscs [12]): 120000 M⁻¹ s⁻¹; Kd (CXCR4 StaR nanodiscs [14]): 1.7 nM; koff (CXCR4 StaR nanodiscs [14]): 0.00013 s⁻¹; kon (CXCR4 StaR nanodiscs [14]): 77000 M⁻¹ s⁻¹
